Data: patent publication US12049482B2, “Molecular switch-mediated control of engineered cells” (THE GENERAL HOSPITAL CORPORATION, priority 2017, dated 2024)
Positions count from the first letter of the chain named. Numbers in names are those of the source. Entries after “also recorded” stand apart in the source; their conditions may differ.

Key:
CRBN [1] = target: T1, CRBN (Homo sapiens, UniProt Q96SW2); settings: in vitro; cited from earlier work
CRBN [2] = target: T1, CRBN; assay: Pomalidomide-dependent degradation of IKZF3 degron with A153 substitutions; format: cell-based; parameters: endogenous in cells; settings: wtCRBN-expressing cells, pomalidomide dose-response
Description: (§1) Transduced cells were incubated with a range of Pomalidomide concentrations or DMSO for 20 hours. Cells were analyzed by flow cytometry for eGFP and mCherry fluorescence. 1000 mCherry+ cells were analyzed per sample, and the geometric mean of the per-cell eGFP/mCherry ratio was calculated in Flowjo. In Pomalidomide dose titration studies, the EC50 was calculated by non-linear regression in Prism. Experiments were performed in triplicate. In some cases cell surface protein expression was assayed in parallel with the above reporter assay; cells were stained with anti-CD28-BV421 antibody (BD Biosciences 562613) at a 1:50 dilution in FACS buffer (PBS+2% FCS+2 mM EDTA) for 10 minutes on ice. Cells were washed with FACS buffer and analyzed by flow cytometry.

K562-CD19 cells = assay: Jurkat degron-tagged CAR-T co-culture with K562-CD19 (Myc-tag, CD69, IL2); format: cell-based, human
Description: 100,000 CAR-T Jurkat cells were co-cultured with 20,000 K562 or K562-CD19 cells for 18 hours.
Jurkat T cells lentivirally transduced with the genetic components described herein were co-cultured for 24 hours with K562 cells (human blast crisis Chronic Myeloid Leukemia cell line) lentivirally transduced with an expression vector encoding CD19 (referred to as K562-CD19) (G&P Biosciences LTV-CD19) or isogenic K562 cells lacking the target antigen. Both K562-CD19 and K562 cell lines were engineered to express homogenous high level mCherry expression via transduction with the Jenner lentivirus, allowing discrimination of K562 and Jurkat cells by flow cytometry. Unless otherwise specified, 50,000 Jurkat cells were co-cultured with 10,000 K562 cells in 110 ul of RPMI supplemented with Pen/Strep and 10% fetal calf serum for 24 hours. The supernatant was then harvested for cytokine secretion assays and IL2 concentration in the supernatant was performed according to manufacturer specifications (BD Biosciences 555190). The cells were analyzed by flow cytometry. Expression of the early activation marker CD69 (BioLegend 310910), myc tagged cell surface proteins (Cell Signaling Technologies 2233S), and fluorescent protein markers were assessed.

CRL4^CRBN = target: T2, CRL4^CRBN (Homo sapiens, UniProt Q96SW2); assay: GFP/mCherry reporter assay for degradation of degron-eGFP fusion proteins in Jurkat T cells; format: cell-based
T2 construct: endogenous in cells; host or cells: Jurkat T cells (ligase endogenous; degron-eGFP reporters lentivirally transduced)
T2 sequence (Q16531 whole entry partner, one chain of several, the tested form may be a part): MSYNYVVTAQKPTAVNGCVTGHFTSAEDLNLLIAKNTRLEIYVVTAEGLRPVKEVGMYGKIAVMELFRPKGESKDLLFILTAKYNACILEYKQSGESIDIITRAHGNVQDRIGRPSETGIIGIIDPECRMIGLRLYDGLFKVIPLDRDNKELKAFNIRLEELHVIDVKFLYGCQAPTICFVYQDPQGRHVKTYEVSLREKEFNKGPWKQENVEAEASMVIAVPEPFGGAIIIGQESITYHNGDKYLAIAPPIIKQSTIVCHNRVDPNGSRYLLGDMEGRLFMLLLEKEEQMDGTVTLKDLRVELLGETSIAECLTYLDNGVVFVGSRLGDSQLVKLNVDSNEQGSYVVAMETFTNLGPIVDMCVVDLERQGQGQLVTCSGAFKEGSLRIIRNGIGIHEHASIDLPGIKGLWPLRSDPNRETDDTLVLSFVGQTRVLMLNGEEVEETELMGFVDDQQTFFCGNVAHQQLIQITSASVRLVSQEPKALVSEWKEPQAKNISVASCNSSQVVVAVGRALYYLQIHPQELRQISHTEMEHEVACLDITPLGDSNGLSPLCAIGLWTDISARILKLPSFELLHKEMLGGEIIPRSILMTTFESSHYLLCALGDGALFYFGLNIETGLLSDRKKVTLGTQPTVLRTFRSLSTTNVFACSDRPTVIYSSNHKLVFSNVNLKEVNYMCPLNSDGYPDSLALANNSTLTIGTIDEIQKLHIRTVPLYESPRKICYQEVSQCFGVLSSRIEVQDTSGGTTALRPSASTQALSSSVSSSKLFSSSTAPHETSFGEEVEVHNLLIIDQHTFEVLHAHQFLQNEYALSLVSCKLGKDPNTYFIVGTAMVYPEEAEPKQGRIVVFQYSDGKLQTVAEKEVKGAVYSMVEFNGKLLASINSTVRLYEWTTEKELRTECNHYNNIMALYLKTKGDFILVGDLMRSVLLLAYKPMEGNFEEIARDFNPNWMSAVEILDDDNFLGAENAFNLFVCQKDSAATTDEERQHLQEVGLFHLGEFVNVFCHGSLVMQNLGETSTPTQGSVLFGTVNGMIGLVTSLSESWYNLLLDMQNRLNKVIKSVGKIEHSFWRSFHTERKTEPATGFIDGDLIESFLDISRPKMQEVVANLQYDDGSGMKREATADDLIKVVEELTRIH
T2 sequence (Q13619 whole entry partner, one chain of several, the tested form may be a part): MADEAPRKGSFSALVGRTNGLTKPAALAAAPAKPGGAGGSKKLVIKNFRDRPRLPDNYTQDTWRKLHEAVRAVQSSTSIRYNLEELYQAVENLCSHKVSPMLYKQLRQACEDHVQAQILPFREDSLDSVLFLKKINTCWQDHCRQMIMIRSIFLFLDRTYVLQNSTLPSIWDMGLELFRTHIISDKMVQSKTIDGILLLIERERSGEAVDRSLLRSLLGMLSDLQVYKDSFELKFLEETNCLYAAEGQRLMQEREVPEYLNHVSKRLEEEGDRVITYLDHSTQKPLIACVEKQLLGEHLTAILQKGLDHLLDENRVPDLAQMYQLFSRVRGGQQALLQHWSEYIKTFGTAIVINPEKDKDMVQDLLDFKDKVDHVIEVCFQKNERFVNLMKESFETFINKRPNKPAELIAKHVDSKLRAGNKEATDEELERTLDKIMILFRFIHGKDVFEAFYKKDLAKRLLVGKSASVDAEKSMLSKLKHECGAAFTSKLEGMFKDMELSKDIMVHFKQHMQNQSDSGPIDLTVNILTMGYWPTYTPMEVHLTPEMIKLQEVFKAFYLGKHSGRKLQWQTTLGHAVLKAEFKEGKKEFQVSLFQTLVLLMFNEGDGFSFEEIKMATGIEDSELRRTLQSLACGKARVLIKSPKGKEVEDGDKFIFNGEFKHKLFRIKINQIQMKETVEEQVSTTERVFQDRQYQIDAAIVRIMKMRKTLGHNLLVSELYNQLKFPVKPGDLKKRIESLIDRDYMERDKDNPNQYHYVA
T2 sequence (P62877 whole entry partner, one chain of several, the tested form may be a part): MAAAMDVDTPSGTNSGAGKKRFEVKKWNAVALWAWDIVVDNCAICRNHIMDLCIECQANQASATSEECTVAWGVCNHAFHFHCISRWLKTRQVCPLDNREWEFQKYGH
T2 sequence (Q9UKT9 130-189 partner limits assumed, one chain of several): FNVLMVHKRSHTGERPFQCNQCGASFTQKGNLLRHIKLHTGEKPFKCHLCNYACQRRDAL
Description: First, the FMC63 anti-CD19 scFv was exchanged for the CD28 Ig-like V-type extracellular domain. […] Experiments were performed in triplicate.
as §1, with “Transduced cells were incubated with a range of Pomalidomide concentrations or DMSO for 20 hours.” left out
First, the FMC63 anti-CD19 scFv was exchanged for the CD28 Ig-like V-type extracellular domain.

IKZF3aa130-189 = assay: BRET assay, dimerization of IKZF3aa130-189 with CRBN or minCRBN variants; format: cell-based, human; settings: pomalidomide dose-response
Sequence of IKZF3aa130-189 (Q9UKT9 130-189 limits assumed, one chain of several): as the sequence (Q9UKT9 130-189 partner limits assumed, one chain of several) above
Description: Specifically, CRBN deletion variants were engineered to retain binding to Pom/IKZF3 but not DDB1/CUL4. Four deletion variants were generated in CRBN that removed the DDB1-binding domain, as shown in the middle image (NTD is the N-terminal domain; LLP1 is Lon-like protease domain 1 (split into LLP1-N and LLP1-C regions); TBD is the Thalidomide binding domain). At middle, BRET assays were performed upon 293T cells harboring bialleleic CRISPR/Cas9 disruption of endogenous CRBN (293T-CRBNΔe5), to assess dimerization between IKZF3aa130-189 and CRBN or minCRBN variants (dose-response data shown are CRBN, minCRBN1, minCRBN2, minCRBN3 and minCRBN4). […] Pomalidomide-dependent dimerization was observed between IKZF3aa130-189-HaloTag and CRBN-Nanoluciferase (NLuc) or minCRBN2-4-NLuc. […] 1 day after transfection, cells were exposed to 1 μM pomalidomide for the number of hours indicated and GFP and mCherry fluorescence was measured by flow cytometry (eGFPmCherry levels were detected as 0.5 or less for the CRBN trace).
(§2) 293T cells were co-transfected with pFC14K and pFC32K plasmids expressing IKZF3-HaloTag and CRBN-Nanoluciferase fusion proteins and incubated overnight. Cells were then trypsinized and seeded into 96 well plates, at 40,000 cells per well. The BRET assay was performed per manufacturer's instructions (Promega™). In brief, cells were incubated for 2 hours with varying concentrations of Pomalidomide or DMSO, 10 μM MG132, and 100 nM HaloTag NanoBRET 618 Ligand. NanoBRET Nano-Glo substrate was added and donor (460 nm) and acceptor (618 nm) emission were measured within 10 minutes (EnVision, Perkin Elmer). Mean corrected milliBRET units (mBU) was calculated.
Tested forms of minimal CRBN included minCRBN1, minCRBN2, minCRBN3 and minCRBN4, each of which were aligned against the wild-type CRBN (FIG. 1; all tested minCRBNs lacked the DDB1-binding domain—minCRBN1 comprised amino acids 339-442 of CRBN (including the TBD); minCRBN2 comprised amino acids 317-442 of CRBN (including TBD and an N-terminal extended sequence relative to minCRBN1); minCRBN3 included all CRBN sequence other than amino acids 194-207 (deletion of the DDB1-binding domain); and minCRBN4 included all sequences other than amino acids 187-260 (deletion of the DDB1-binding domain)).

IKZF3 degron-GFP = assay: eGFP/mCherry reporter, IKZF3 degron degradation with co-transfected CRBN or minCRBN1-4 in 293T-CRBNΔe5 cells; format: cell-based, human; settings: 1 μM pomalidomide, time course in hours, 293T-CRBNΔe5 cells
Sequence of IKZF3 degron-GFP (Q9UKT9 130-189 limits assumed, one chain of several): as the sequence (Q9UKT9 130-189 partner limits assumed, one chain of several) above
Description: Specifically, CRBN deletion variants were engineered to retain binding to Pom/IKZF3 but not DDB1/CUL4. Four deletion variants were generated in CRBN that removed the DDB1-binding domain, as shown in the middle image (NTD is the N-terminal domain; LLP1 is Lon-like protease domain 1 (split into LLP1-N and LLP1-C regions); TBD is the Thalidomide binding domain). At middle, BRET assays were performed upon 293T cells harboring bialleleic CRISPR/Cas9 disruption of endogenous CRBN (293T-CRBNΔe5), to assess dimerization between IKZF3aa130-189 and CRBN or minCRBN variants (dose-response data shown are CRBN, minCRBN1, minCRBN2, minCRBN3 and minCRBN4). […] 1 day after transfection, cells were exposed to 1 μM pomalidomide for the number of hours indicated and GFP and mCherry fluorescence was measured by flow cytometry (eGFPmCherry levels were detected as 0.5 or less for the CRBN trace).
Transduced cells were incubated with a range of Pomalidomide concentrations or DMSO for 20 hours. Cells were analyzed by flow cytometry for eGFP and mCherry fluorescence. 1000 mCherry+ cells were analyzed per sample, and the geometric mean of the per-cell eGFP/mCherry ratio was calculated in Flowjo. In Pomalidomide dose titration studies, the EC50 was calculated by non-linear regression in Prism. […] Cells were washed with FACS buffer and analyzed by flow cytometry.

IKZF3 A153M = assay: BRET, IKZF3 A153 substitutions with CRBN, CRBN V388A or CRBN I371A; format: cell-based, human; settings: 293T cells, 2 hours
Sequence of IKZF3 A153M (Q9UKT9 130-189 A153M limits assumed): as the sequence (Q9UKT9 130-189 partner limits assumed, one chain of several) above, with A24M counted along it
Description: as §2

Nc1cccc2c1C(=O)N(C1CCC(=O)NC1=O)C2=O (stereo not shown) [pomalidomide, Pomalidomide]
binding to CRBN (CRBN [1]): binds to CRBN in vitro

O=C1CCC(N2C(=O)c3ccccc3C2=O)C(=O)N1 (stereo not shown) [thalidomide, Thalidomide]
binding to CRBN (CRBN [1]): binds to CRBN in vitro

A153D: IKZF3 degron polypeptide, amino acids 130-189 A153D, SEQ ID NO: 43
pomalidomide-dependent degradation of substituted IKZF3 degron (CRBN [2]): most effective at disrupting pomalidomide-dependent IKZF3 degron degradation

IKZF3 A153M: IKZF3 degron polypeptide, amino acids 130-189 A153M, SEQ ID NO: 36
pomalidomide-dependent degradation of substituted IKZF3 degron (CRBN [2]): disrupted binding and degradation by CRBN

d913: Hybrid degron, IKZF3 aa 130-145 + ZFP91 aa 400-410 + IKZF3 aa 157-189, SEQ ID NO: 95 (FNVLMVHKRSHTGERPLQCEICGFTCRQKGNLLRHIKLHTGEKPFKCHLCNYACQRRDAL)
drug control over CAR protein expression, activation and IL2 secretion (K562-CD19 cells; Jurkat CAR-T with K562 or K562-CD19, 18 hours): more robust control over CAR protein expression, activation, and cytokine secretion than the endogenous IKZF3 degron
cell surface CAR expression (anti-Myc tag) (K562-CD19 cells; Jurkat T cells, no drug (tonic)): lower tonic CAR cell surface protein abundance versus the control CAR

degron: IKZF3 degron polypeptide, amino acids 130-189, SEQ ID NO: 5, as eGFP fusion
degradation of degron-eGFP protein (CRL4^CRBN; by 1 hour after addition of 1 μM pomalidomide): ~90%
EC50 (CRL4^CRBN; nM pomalidomide, Jurkat T cells): 0.4 nM

B1: minCRBN2: Minimal CRBN, amino acids 317-442 of CRBN, SEQ ID NO: 2 (protein)
chain: CTSLCCKQCQETEITTKNEIFSLSLCGPMAAYVNPHGYVHETLTVYKACNLNLIGRPSTEHSWFPGYAWTVAQCKICASHIGWKFTATKKDMSPQKFWGLTRSALLPTIPDTEDEISPDKVILCL
pomalidomide-dependent dimerization with IKZF3 degron (mBU) (IKZF3aa130-189): pomalidomide-dependent interactions

B2: CRBN: Native Homo sapiens CRBN polypeptide, SEQ ID NO: 6; positive control (protein, listed as Homo sapiens)
chain: MAGEGDQQDAAHNMGNHLPLLPAESEEEDEMEVEDQDSKEAKKPNIINFDTSLPTSHTYLGADMEEFHGRTLHDDDSCQVIPVLPQVMMILIPGQTLPLQLFHPQEVSMVRNLIQKDRTFAVLAYSNVQEREAQFGTTAEIYAYREEQDFGIEIVKVKAIGRQRFKVLELRTQSDGIQQAKVQILPECVLPSTMSAVQLESLNKCQIFPSKPVSREDQCSYKWWQKYQKRKFHCANLTSWPRWLYSLYDAETLMDRIKKQLREWDENLKDDSLPSNPIDFSYRVAACLPIDDVLRIQLLKIGSAIQRLRCELDIMNKCTSLCCKQCQETEITTKNEIFSLSLCGPMAAYVNPHGYVHETLTVYKACNLNLIGRPSTEHSWFPGYAWTVAQCKICASHIGWKFTATKKDMSPQKFWGLTRSALLPTIPDTEDEISPDKVILCL
eGFP/mCherry level of IKZF3 degron-GFP reporter (IKZF3 degron-GFP): ≤ 0.5
eGFP/mCherry level of IKZF3 degron-GFP reporter (IKZF3 degron-GFP; listed as wild-type CRBN): successfully promoted degradation of the IKZF3 degron
pomalidomide-dependent dimerization with IKZF3 degron (mBU) (IKZF3aa130-189): pomalidomide-dependent interactions

B3: CRBN V388A: CRBN polypeptide with V388A substitution (protein, UniProt Q96SW2 1-442, looked up, variant V388A)
Protein cereblon: B2 chain with V388A
pomalidomide-dependent binding with IKZF3 A153M (IKZF3 A153M; 10 μM MG132, 1 μM pomalidomide and dose-response): restored binding affinity with IKZF3 A153M; also recorded: greatest restoration of pomalidomide-dependent binding
mBU fold change at 1 μM Pomalidomide/DMSO (IKZF3 A153M; 10 μM MG132, mutant versus wild type CRBN): increased the mBU fold change versus wild type CRBN

B4: minCRBN4: All CRBN sequences other than amino acids 187-260 (deletion of the DDB1-binding domain), SEQ ID NO: 4 (protein)
chain: MAGEGDQQDAAHNMGNHLPLLPESEEEDEMEVEDQDSKEAKKPNIINFDTSLPTSHTYLGADMEEFHGRTLHDDDSCQVIPVLPQVMMILIPGQTLPLQLFHPQEVSMVRNLIQKDRTFAVLAYSNVQEREAQFGTTAEIYAYREEQDFGIEIVKVKAIGRQRFKVLELRTQSDGIQQAKVQILPLREWDENLKDDSLPSNPIDFSYRVAACLPIDDVLRIQLLKIGSAIQRLRCELDIMNKCTSLCCKQCQETEITTKNEIFSLSLCGPMAAYVNPHGYVHETLTVYKACNLNLIGRPSTEHSWFPGYAWTVAQCKICASHIGWKFTATKKDMSPQKFWGLTRSALLPTIPDTEDEISPDKVILCL
pomalidomide-dependent dimerization with IKZF3 degron (mBU) (IKZF3aa130-189): pomalidomide-dependent interactions

B5: minCRBN1: Minimal CRBN, amino acids 339-442 of CRBN (including the TBD), SEQ ID NO: 1 (protein)
chain: SLSLCGPMAAYVNPHGYVHETLTVYKACNLNLIGRPSTEHSWFPGYAWTVAQCKICASHIGWKFTATKKDMSPQKFWGLTRSALLPTIPDTEDEISPDKVILCL
pomalidomide-dependent dimerization with IKZF3 degron (mBU) (IKZF3aa130-189): dose-dependence was only not observed
